From US11733246B2, “Compositions, imaging, and therapeutic methods targeting folate receptor 1 (FOLR1)” (Indi Molecular, Inc., priority 2020, dated 2023)
One block for each molecule: values may come before it. Numbered stars: 1 amine (or outer) side, 2 acyl side, 3 side chain; on linkers, the order of the positions; unused ones are H or OH. Bridge positions count the residues as written; N and C are the ends. Square brackets hold non-standard residues; d marks the D form. Triazole bridges read from a SMILES are 1,4-linked. Ends that are not written are not given here. Peptide text beside a SMILES is read from it. * marks the point of attachment. DOTA = O=C(O)CN1CCN(CC(=O)O)CCN(CC(=O)*)CCN(CC(=O)O)CC1; Pteroyl = Nc1nc2ncc(CNc3ccc(C(=O)*)cc3)nc2c(=O)[nH]1; Butanoyl(4-(4-I-phenyl)) = O=C(CCCc1ccc(I)cc1)*; Lys(N3) = [N-]=[N+]=NCCCC[C@H](N)C(=O)O; γGlu = O=C(O)[C@H](CCC(=O)[*:2])N[*:1]; X3 = O=C(CO/N=C/c1ccc(F)cc1)*; AEEEA = NCCOCCOCCOCC(=O)O; Pra = C#CC[C@H](N)C(=O)O; X2 = NOCC(=O)*

What was measured:
Plasma stability, mouse = conditions: Mu; for half-life at 2 μM: CD-1, mouse, pH 7.4, Plasma Stability (t 1/2)
Experimental: (§5) Plasma was thawed in a 37° C. water bath. Residual clots were removed via centrifugation at 4000 rpm for 5 minutes. The pH of the plasma was adjusted to 7.4 if required. Test articles were diluted to 100 μM by diluting a 1 mM working solution (in DMSO) with 45% methanol in water. To 98 μL of plasma was added 2 μL of the 100 μM solution, resulting in 2 μM final concentration of the test article. Samples were incubated at 37° C. in a water bath. At the indicated time points (0, 10, 30, 60, 120 minutes) 100 μL of 4% H3PO4 was added followed by 800 μL of stop solution (200 ng/mL tolbutamide and 200 ng/mL labetalol in 100% acetonitrile). The samples were centrifuged and the plasma protein-free supernatant (100 μL) was subjected to LC-MS/MS analysis.

Plasma stability, human = conditions: Hu; for half-life at 2 μM: pH 7.4, Plasma Stability (t 1/2)
Experimental: as §5

human recombinant NEP = human recombinant NEP (Homo sapiens, UniProt P08473); assay type: biochemical
Sequence of human recombinant NEP (P08473 whole entry): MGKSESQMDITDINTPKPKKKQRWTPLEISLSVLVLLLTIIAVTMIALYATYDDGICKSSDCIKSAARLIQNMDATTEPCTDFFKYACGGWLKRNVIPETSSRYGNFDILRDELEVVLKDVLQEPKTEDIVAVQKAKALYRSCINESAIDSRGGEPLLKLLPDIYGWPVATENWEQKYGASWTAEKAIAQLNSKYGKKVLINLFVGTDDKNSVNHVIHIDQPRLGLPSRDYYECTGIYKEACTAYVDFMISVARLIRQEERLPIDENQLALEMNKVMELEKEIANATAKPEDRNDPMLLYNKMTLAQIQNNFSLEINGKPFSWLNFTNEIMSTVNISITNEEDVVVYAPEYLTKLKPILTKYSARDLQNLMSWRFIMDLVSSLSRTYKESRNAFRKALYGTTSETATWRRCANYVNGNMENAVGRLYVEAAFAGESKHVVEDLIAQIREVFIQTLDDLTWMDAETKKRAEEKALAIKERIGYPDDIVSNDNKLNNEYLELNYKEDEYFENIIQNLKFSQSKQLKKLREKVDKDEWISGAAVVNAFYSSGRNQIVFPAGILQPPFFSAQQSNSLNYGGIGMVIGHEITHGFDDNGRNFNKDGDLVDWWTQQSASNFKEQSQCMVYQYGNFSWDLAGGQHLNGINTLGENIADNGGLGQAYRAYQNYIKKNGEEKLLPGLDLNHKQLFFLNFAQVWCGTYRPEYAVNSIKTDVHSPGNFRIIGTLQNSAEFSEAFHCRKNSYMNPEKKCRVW
Experimental: In order to test the susceptibility of GFK and MVK linkers to NEP-mediated cleavage, the peptide (Folate-hshta-Lys(MPBA)-Gly-Phe-Lys(DOTA) (SEQ ID NO:6)) was incubated with human recombinant NEP and analyzed the solution for the presence of cleaved adducts. MALDI was utilized to monitor the cleavage of a PCC heterobiligand that contains a NEP protease recognizable sequence (G-F-K). The PCC concentration was constant and the NEP concentration was titrated down from 10 nM to 1 nM, 0.1 nM, 0.01 nM, and no NEP. The NEP-mediated cleaved adduct was identified by mass. 10 μM PCC containing the GFK linker was combined with varying amounts of NEP. […] Below 0.1 nM no cleavage was observed. • Folate-hshta-Lys(MPBA)-Gly-Phe-Lys(DOTA) (SEQ ID NO:6) • Molecular weight 2231.42
The NEP-mediated cleavage was also monitored by HPLC. In agreement with the MALDI spectra, the HPLC chromatograms show depletion of the parent brush-border heterobiligand (retention time 17.1 minutes), dose-dependent on the amount of NEP spiked into the sample (10 nM, 1 nM, 0.1 nM, 0.01 nM, and no NEP). An appearance of a new peak (retention time 16.5 minutes) in concert with the depletion of the starting material is presumed to be the cleaved folate-containing peptide.
In order to test the specificity of NEP, a non-cleavable linker (PEG3) was also assayed.
To reduce the radioactive dose to the kidney, Indi ^177Lu-7327 was constructed to incorporate a GFK linker that is susceptible to cleavage by enzymes found predominately in the kidney's brush border. These enzymes cleave off the radionuclide-chelator complex, which is quickly eliminated by the kidney for excretion in the urine. The zinc metalloprotease neprilysin (NEP) is expressed with high abundance in the kidney. […] To confirm NEP-mediated cleavage of the GFK linker in Indi 7327, the peptide was incubated with recombinant human NEP at 37° C. for 1 h and analyzed by matrix-assisted laser desorption/ionization mass spectrometry (MALDI-MS) for the evolution of cleaved adducts (FIG. 42). […] The expected cleaved adduct (mass: 1283.16 m/z) appears in the samples containing 10, 1.0, and 0.1 nM NEP. […] Below 0.1 nM NEP, no cleavage was observed. In addition to confirming the selectivity of NEP for the GFK linker, it is also important to note that the remaining portions of the Indi 7327 were impervious to the enzyme.

[1] = tested on: OVCAR3 (FOLR1+) tumor bearing NSG mice; assay: in vivo; conditions: mouse
Experimental: Female, 7-week-old NSG mice were housed under pathogen-free conditions. Water and food were provided ad libitum. To create mice with FOLR1+ ovarian xenograft tumors, mice were injected subcutaneously with OVCAR3 cells (1×10^7 cells per mouse) resuspended in 50% Matrigel in PBS into the shoulder region. Tumor growth was monitored by caliper measurements. OVCAR3 is a human ovarian adenocarcinoma known to over-express FOLR1.
^68Ga PET imaging was used to study in vivo biodistribution of heterobiligands in non-tumor bearing (healthy) mice and OVCAR3 tumor bearing mice. 100-200 μCi of [^68Ga]DOTA-labeled heterobiligand was administered intravenously (i.v.) via the tail vein of each mouse. Dynamic PET imaging was performed from 0-1 h, followed by acquisition of static PET images at 2 h and 4 h post-injection. CT scans were acquired for anatomical reference. Imaging was performed on an Inveon microPET/CT small animal scanner. The PET signal was quantitated by three-dimensional ROI analysis and represented as percent injected dose (% ID) vs. time ([…]) for major organs including tumor, liver, heart, lung, bladder, and kidney.
Evaluation of a folate-hshta (SEQ ID NO:6) Nterm heterobiligand bearing both an albumin binder and DOTA chelator in PET was a priority, given that DOTA can accommodate both ^68Ga for imaging and ^177Lu for radiotherapy. A 200 μCi dose of ^68Ga-labeled folate-hshta-PEG3-Lys(MPBA)-Lys(DOTA) (SEQ ID NO:6) (compound #2809) was injected i.v. via tail vein in an NSG mouse bearing s.c. human OVCAR3 (FOLR1+) tumor. ^68Ga PET/CT imaging scans were performed at 0-1 h (dynamic), 2 h (static), and 4 h (static). […] The time-course biodistribution of ^68Ga-labeled folate-hshta-PEG3-Lys(MPBA)-Lys(DOTA) (SEQ ID NO:6) (compound #2809) was calculated to quantify the uptake in major organs including the tumor (FIG. 17). […] Larger tumors (490 mm^3) were also evaluated with the ^68Ga-chelated PET probe.
Images were captured for compound #1307 at the time points 5 min, 10 min, 15 min, 30 min, 1 h, 2 h, and 4 h. PET/CT images were taken following the injection of 4 female NSG mice with ^68Ga-chelated compound #2809. […] Images for mouse 4 are shown in FIG. 23 (Compounds #1307 and #2809) and FIG. 24 (Compound #1307).
Biodistribution was initially evaluated by PET imaging, as the time frame for a significant portion of clearance is roughly similar to the time frame of PET imaging experiments. Indi ^68Ga-7327 was injected via the tail vein into OVCAR3 (FOLR+) tumor implanted female NSG mice once the tumor size reached 200 mm^3, and microPET/CT scans were acquired at 5 min, 10 min, 15 min, 30 min, 1 h, 2 h, and 4 h post-injection. PET images were corrected for CT-based photon attenuation, detector normalization and radioisotope decay and converted to units of percent injected dose per cc (% ID/cc).

[2] = Plasma protein binding (equilibrium dialysis), mouse; assay type: in vitro ADME, CD-1 mouse
Experimental: (§1) HTD 96 a/b regenerated cellulose membrane strips with mass cutoff of 12-14 kDa were soaked in ultra-pure water at room temperature for 1 hour. Each swelled membrane was then soaked in 20:80 ethanol:water for 20 minutes.
(§2) Just prior to the experiment, the membranes were re-soaked in ultra-pure water. Plasma was prepared by thawing under cold water. The plasma was centrifuged to remove any clots and pH was adjusted to 7.0-8.0. Test articles and control compounds were diluted to 2 μM. The dialysis device was loaded by transferring 150 μL of the test article (in triplicate) to the donor side. The dialysis device was placed in a humidified incubator at 37° C. with 5% CO2 in a shaking platform that rotated slowly for 4 hours. After incubation, 50 μL of the supernatant was taken from both sides and analyzed by LC-MS/MS.
(§3) To optimize the albumin binding potential of the heterobiligand, a plasma protein binding (PPB) experiment was performed. This experiment measured the amount of test article bound and free after equilibrating with plasma. Compound #6305 (folate-hshta-Lys(MPBA)-Gly-Phe-Lys(DOTA) (SEQ ID NO:6)), which contains the MPBA albumin binder, was 96.26% bound to mouse plasma and 98.34% bound to human plasma. […] In mouse and human plasmas 99.6% and 99.5% was bound, respectively.

[3] = Plasma protein binding (equilibrium dialysis), human; assay type: in vitro ADME
Experimental: as §1, §2, §3

OVCAR3 (FOLR+) cells = assay: Fluorescence microscopy / live cell imaging of dye-labeled heterobiligand; assay type: cell-based, human; conditions: DyLight 650 label, OVCAR3 vs PC3
Text: To further understand intracellular trafficking of the Nterm heterobiligand, these dye-labeled compounds were imaged by fluorescence microscopy. The cells were counterstained with BioTracker 490, which stains membranes, and Rab5a+, an endosomal stain. […] Low levels of DyLight650 was detected within PC-3 (FOLR1−) cells. Taken together, internalization of the heterobiligand appears to be receptor driven and selective for FOLR1 (+) cells.
(§4) Nonclinical studies were first conducted with Folate-hshta-PEG10-PEG10-K(Biotin), where Folate-hshta is the targeting heterobiligand, PEG10 is a deca(ethylene glycol) linker, and K(Biotin) is the detection label. […] Cross reactivity with the murine folate receptor was also observed. […] In the merged image, purple puncta were observed indicating co-localization of internalized heterobiligand with early endosomes (Rab5a+ vesicles) in OVCAR3 cells.

OVCAR3 cells = assay: Cell internalization assay (acid wash, flow cytometry); assay type: cell-based, human; conditions: OVCAR3 cell line
Experimental: FIG. 10 is a diagram of an assay for assessing cell internalization FOLR1 heterobiligands.
The folate-hshta (SEQ ID NO:6) Nterm heterobiligand was also evaluated in cell penetration imaging assays (FIG. 10). OVCAR3 and PC-3 cells were incubated with the test article at 37° C. for 1 hour. Flow cytometry analysis of the resulting treated cells indicated strong binding to FOLR1 (+) cells. To understand the proportion bound to the surface but not internalized, the cells were briefly washed with acid to liberate the non-internalized peptide.
as §4

Molecule: C[C@H](O)[C@H]1NC(=O)[C@@H](Cc2cnc[nH]2)NC(=O)[C@@H](CO)NC(=O)[C@@H](Cc2cnc[nH]2)NC(=O)[C@@H](NC(=O)CC[C@H](NC(=O)c2ccc(NCc3cnc4nc(N)[nH]c(=O)c4n3)cc2)C(=O)O)Cc2cn(nn2)CCCC[C@@H](C(=O)NCC(=O)N[C@@H](Cc2ccccc2)C(=O)N[C@@H](CCCCNC(=O)CON)C(=O)O)NC(=O)[C@@H](C)NC1=O [compound 3303, Fol-hshta-Gly-Phe-Lys(AO)] ({Pteroyl-γGlu}-[Pra][dH][dS][dH][dT][dA][Lys(N3)]GFK(X2)-OH; triazole 1-7)
half-life at 2 μM (Plasma stability, mouse; AO construct marked (FB)): > 116 h
half-life at 2 μM (Plasma stability, human; AO construct marked (FB)): > 116 h
in vitro Assay Data (NEP assay) (human recombinant NEP): Cleavage of -G-F-K-

Molecule: C[C@H](O)[C@H]1NC(=O)[C@@H](Cc2c[nH]cn2)NC(=O)[C@@H](CO)NC(=O)[C@@H](Cc2c[nH]cn2)NC(=O)[C@@H](NC(=O)CC[C@H](NC(=O)c2ccc(NCc3cnc4nc(N)[nH]c(=O)c4n3)cc2)C(=O)O)Cc2cn(nn2)CCCC[C@@H](C(=O)N[C@@H](CCCCNC(=O)CCCc2ccc(I)cc2)C(=O)NCC(=O)N[C@@H](Cc2ccccc2)C(=O)N[C@@H](CCCCNC(=O)CN2CCN(CC(=O)O)CCN(CC(=O)O)CCN(CC(=O)O)CC2)C(=O)O)NC(=O)[C@@H](C)NC1=O [^68Ga-chelated compound #1307, metal not drawn] ({Pteroyl-γGlu}-[Pra][dH][dS][dH][dT][dA][Lys(N3)]K(Butanoyl(4-(4-I-phenyl)))GFK(DOTA)-OH; triazole 1-7)
heart exposure compared to compound #2809 [1]: less than two-fold increase
kidney absorption [1]: very low kidney absorption
kidney dose compared to compound #2809 [1]: seven-fold reduction
lung accumulation compared to compound #2809 [1]: greater than three-fold increase

half-life at 2 μM (Plasma stability, mouse; 2 μM, 37° C.): 0.747 h
half-life at 2 μM (Plasma stability, human; 2 μM, 37° C.): 0.193 h
Molecule: CC(C)[N+](C)(CCOC(=O)C1c2ccccc2Oc2ccccc21)C(C)C [Propantheline bromide, reference compound]

Molecule: C[C@H](O)[C@H]1NC(=O)[C@@H](Cc2c[nH]cn2)NC(=O)[C@@H](CO)NC(=O)[C@@H](Cc2c[nH]cn2)NC(=O)[C@@H](NC(=O)CC[C@H](NC(=O)c2ccc(NCc3cnc4nc(N)[nH]c(=O)c4n3)cc2)C(=O)O)Cc2cn(nn2)CCCC[C@@H](C(=O)NCCOCCOCCOCC(=O)N[C@@H](CCCCNC(=O)CO/N=C/c2ccc(F)cc2)C(N)=O)NC(=O)[C@@H](C)NC1=O [compound #2, Fol-hshta-PEG3-Lys(FB)] ({Pteroyl-γGlu}-[Pra][dH][dS][dH][dT][dA][Lys(N3)][AEEEA]K(X3)-NH2; triazole 1-7)
half-life (Plasma stability, mouse; mouse, Plasma Stability (t 1/2), 2 μM, 37° C.): > 4.82 h
half-life (Plasma stability, human; Plasma Stability (t 1/2), 2 μM, 37° C.): > 4.82 h
recovery [2]: 115%
fraction unbound ([2]; mouse, plasma): 0.798
recovery [3]: 85%
fraction unbound ([3]; human, plasma): 0.57

Molecule: heterobiligand labeled with DyLight 650: folate-hshta Nterm heterobiligand labeled with the dye DyLight 650 ([dH][dS][dH][dT][dA]; not fully specified (N-terminus); printed as hshta; also: labeled with DyLight 650, place not given here, heterobiligand)
internalization / intracellular localization (OVCAR3 (FOLR+) cells): internalization with clear preference for early endosomes
internalization / intracellular localization (OVCAR3 (FOLR+) cells; listed as DyLight650-labeled peptide-folate heterobiligand): Selective internalization into OVCAR3 (FOLR+) cells
internalized fraction in acid wash (pH 3.0) assay (OVCAR3 cells): high percentage
